Experimental data reported in the supplement of paper PMC11246515.
± gives the standard deviation of the averaged measurements.

Experiment: total protein half-life in vivo (active degradation + dilution); higher = more stable protein
[1] = E. coli NCM3722 delta-clpP delta-lon delta-hslV, growth: N-lim chemostat, doubling time 6 h
[2] = E. coli NCM3722 delta-clpP, growth: N-lim chemostat, doubling time 6 h
[3] = E. coli NCM3722 delta-hslV, growth: N-lim chemostat, doubling time 6 h
[4] = E. coli NCM3722 delta-lon, growth: N-lim chemostat, doubling time 6 h
[5] = E. coli NCM3722 delta-smpB, growth: N-lim chemostat, doubling time 6 h
[6] = wild type E. coli NCM3722, growth: C-lim chemostat, doubling time 3 h
[7] = wild type E. coli NCM3722, growth: C-lim chemostat, doubling time 6 h
[8] = wild type E. coli NCM3722, growth: C-lim chemostat, doubling time 12 h
[9] = wild type E. coli NCM3722, growth: N-lim chemostat, doubling time 6 h
[10] = wild type E. coli NCM3722, growth: N-lim chemostat, doubling time 12 h
[11] = wild type E. coli NCM3722, growth: P-lim chemostat, doubling time 6 h
[12] = wild type E. coli NCM3722, growth: P-lim chemostat, doubling time 12 h

Sequence	total protein half-life in vivo [1] [h]	total protein half-life in vivo [2] [h]	total protein half-life in vivo [3] [h]	total protein half-life in vivo [4] [h]	total protein half-life in vivo [5] [h]	total protein half-life in vivo [6] [h]	total protein half-life in vivo [7] [h]	total protein half-life in vivo [8] [h]	total protein half-life in vivo [9] [h]	total protein half-life in vivo [10] [h]	total protein half-life in vivo [11] [h]	total protein half-life in vivo [12] [h]
MKRHLNTCYRLVWNHMTGAFVVASELARARGKRGGVAVALSLAAVTSLPVLAADIVVHPGETVNGGTLANHDNQIVFGTTNGMTISTGLEYGPDNEANTGGQWVQDGGTANKTTVTSGGLQRVNPGGSVSDTVISAGGGQSLQGRAVNTTLNGGEQWMHEGAIATGTVINDKGWQVVKPGTVATDTVVNTGAEGGPDAENGDTGQFVRGDAVRTTINKNGRQIVRAEGTANTTVVYAGGDQTVHGHALDTTLNGGYQYVHNGGTASDTVVNSDGWQIVKNGGVAGNTTVNQKGRLQVDAGGTATNVTLKQGGALVTSTAATVTGINRLGAFSVVEGKADNVVLENGGRLDVLTGHTATNTRVDDGGTLDVRNGGTATTVSMGNGGVLLADSGAAVSGTRSDGKAFSIGGGQADALMLEKGSSFTLNAGDTATDTTVNGGLFTARGGTLAGTTTLNNGAILTLSGKTVNNDTLTIREGDALLQGGSLTGNGSVEKSGSGTLTVSNTTLTQKAVNLNEGTLTLNDSTVTTDVIAQRGTALKLTGSTVLNGAIDPTNVTLASGATWNIPDNATVQSVVDDLSHAGQIHFTSTRTGKFVPATLKVKNLNGQNGTISLRVRPDMAQNNADRLVIDGGRATGKTILNLVNAGNSASGLATSGKGIQVVEAINGATTEEGAFVQGNRLQAGAFNYSLNRDSDESWYLRSENAYRAEVPLYASMLTQAMDYDRIVAGSRSHQTGVNGENNSVRLSIQGGHLGHDNNGGIARGATPESSGSYGFVRLEGDLMRTEVAGMSVTAGVYGAAGHSSVDVKDDDGSRAGTVRDDAGSLGGYLNLVHTSSGLWADIVAQGTRHSMKASSDNNDFRARGWGWLGSLETGLPFSITDNLMLEPQLQYTWQGLSLDDGKDNAGYVKFGHGSAQHVRAGFRLGSHNDMTFGEGTSSRAPLRDSAKHSVSELPVNWWVQPSVIRTFSSRGDMRVGTSTAGSGMTFSPSQNGTSLDLQAGLEARVRENITLGVQAGYAHSVSGSSAEGYNGQATLNVTF	5.867 ± 0.045	6.13 ± 0.57	4.9 ± 0.93	5.37 ± 0.085	5.53 ± 0.46	3.05 ± 0.062	4.43 ± 1.3	4.46 ± 0.86	5.92 ± 0.28	9.16 ± 2	5.77 ± 0.94	11.9 ± 0.57
MKRIAFVFSTAPHGTAAGREGLDALLATSALTDDLAVFFIADGVFQLLPGQKPDAVLARDYIATFKLLGLYDIEQCWVCAASLRERGLDPQTPFVVEATPLEADALRRELANYDVILRF	5 ± 0.57	4.73	4.7 ± 0.82	5.18 ± 0.19	4.61 ± 0.23	> 4	6 ± 0.18	11.2 ± 0.57	4.83 ± 0.091	7.67 ± 0.38	5.89 ± 1.2	13.9 ± 2.3
MKRINALTIAGTDPSGGAGIQADLKTFSALGAYGCSVITALVAQNTRGVQSVYRIEPDFVAAQLDSVFSDVRIDTTKIGMLAETDIVEAVAERLQRYQIQNVVLDTVMLAKSGDPLLSPSAVATLRSRLLPQVSLITPNLPEAAALLDAPHARTEQEMLEQGRSLLAMGCGAVLMKGGHLDDEQSPDWLFTREGEQRFTAPRIMTKNTHGTGCTLSAALAALRPRHTNWADTVQEAKSWLSSALAQADTLEVGHGIGPVHHFHAWW	5.24 ± 0.81	5.47 ± 0.26	4.31 ± 0.15	4.49 ± 0.18	4.23 ± 0.093	3.06 ± 0.055	5.96 ± 0.11	9.68 ± 4.2	4.49 ± 0.61	7.38 ± 0.17	5.89 ± 0.12	9.53 ± 1.9
MKRKRLFLLASLLPMFALAGNKWNTTLPGGNMQFQGVIIAETCRIEAGDKQMTVNMGQISSNRFHAVGEDSAPVPFVIHLRECSTVVSERVGVAFHGVADGKNPDVLSVGEGPGIATNIGVALFDDEGNLVPINRPPANWKRLYSGSTSLHFIAKYRATGRRVTGGIANAQAWFSLTYQ	–	–	–	–	5.7 ± 0.54	2.67	6.06	–	–	–	–	–
MKRLIMATMVTAILASSTVWAADNAPVAAQQQTQQVQQTQKTAAAAERISEQGLYAMRDVQVARLALFHGDPEKAKELTNEASALLSDDSTEWAKFAKPGKKTNLNDDQYIVINASVGISESYVATPEKEAAIKIANEKMAKGDKKGAMEELRLAGVGVMENQYLMPLKQTRNALADAQKLLDKKQYYEANLALKGAEDGIIVDSEALFVN	–	–	–	–	–	–	–	–	–	–	4.05	–
MKRLKNELNALVNRGVDRHLRLAVTGLSRSGKTAFITAMVNQLLNIHAGARLPLLSAVREERLLGVKRIPQRDFGIPRFTYDEGLAQLYGDPPAWPTPTRGVSEIRLALRFKSNDSLLRHFKDTSTLYLEIVDYPGEWLLDLPMLAQDYLSWSRQMTGLLNGQRGEWSAKWRMMSEGLDPLAPADENRLADIAAAWTDYLHHCKEQGLHFIQPGRFVLPGDMAGAPALQFFPWPDVDTWGESKLAQADKHTNAGMLRERFNYYCEKVVKGFYKNHFLRFDRQIVLVDCLQPLNSGPQAFNDMRLALTQLMQSFHYGQRTLFRRLFSPVIDKLLFAATKADHVTIDQHANMVSLLQQLIQDAWQNAAFEGISMDCLGLASVQATTSGIIDVNGEKIPALRGNRLSDGAPLTVYPGEVPARLPGQAFWDKQGFQFEAFRPQVMDVDKPLPHIRLDAALEFLIGDKLR	6.51 ± 0.91	6.53 ± 0.49	6.01 ± 0.15	5.93 ± 0.19	5.925 ± 0.037	2.94 ± 0.0058	6.04 ± 0.74	10.8 ± 3.9	5.52 ± 0.18	12.23 ± 0.11	6.1 ± 0.29	12.2 ± 0.47
MKRLLILTALLPFVGFAQPINTLNNPNQPGYQIPSQQRMQTQMQTQQIQQKGMLNQQLKTQTQLQQQHLENQINNNSQRVLQSQPGERNPARQQMLPNTNGGMLNSNRNPDSSLNQQHMLPERRNGDMLNQPSTPQPDIPLKTIGP [P0ADX7]	5.56	–	–	4.65	3.81	–	–	–	–	7.44	–	–
